*1 amine or outer side, *2 acyl side, *3 side chain or, on linkers, in order; H or OH if unused. [ ]: non-standard residue; d: D form. pT = C[C@@H](OP(=O)(O)O)[C@H](N)C(=O)O; Suc = O=C(CCC(=O)[*:2])[*:1]
Biological target: TbPar42 N-terminal extended FHA domain (1-177) (T. brucei)
Test: NMR titration; 440 uM 15N-labelled NterFHA or PPIase in 50 mM potassium phosphate, pH 6.26, 90%/10% H2O/D2O; peptide added stepwise to 13 mM; 1H-15N-HSQC or SOFAST spectra, 700 MHz, 27 °C

- Kd: 4 mM
B1: Suc-Ala-pThr-Pro-Ala-NH2 (peptide)
peptide: Suc-A[pT]PA-NH2
SMILES: C[C@H](NC(=O)[C@@H]1CCCN1C(=O)[C@@H](NC(=O)[C@H](C)NC(=O)CCC(=O)O)[C@@H](C)OP(=O)(O)O)C(N)=O

Source: PMC6468809, “Structural Analysis of the 42 kDa Parvulin of Trypanosoma brucei” (Biomolecules, 2019)
